Experimental data from PMC8274477 (Frontiers in Cell and Developmental Biology, 2021).

B1: AKR1D1 (natural protein, human, UniProt P51857 1-326, looked up)
chain: MDLSAASHRIPLSDGNSIPIIGLGTYSEPKSTPKGACATSVKVAIDTGYRHIDGAYIYQNEHEVGEAIREKIAEGKVRREDIFYCGKLWATNHVPEMVRPTLERTLRVLQLDYVDLYIIEVPMAFKPGDEIYPRDENGKWLYHKSNLCATWEAMEACKDAGLVKSLGVSNFNRRQLELILNKPGLKHKPVSNQVECHPYFTQPKLLKFCQQHDIVITAYSPLGTSRNPIWVNVSSPPLLKDALLNSLGKRYNKTAAQIVLRFNIQRGVVVIPKSFNLERIKENFQIFDFSLTEEEMKDIEALNKNVRFVELLMWRDHPEYPFHDEY
notes: AKR1D1; protein on the human proteome microarray; source: spotted on the HuProt human proteome microarray
B2: SLC25A16 (natural protein, human, UniProt P16260 1-332, looked up)
chain: MAAATAAAALAAADPPPAMPQAAGAGGPTTRRDFYWLRSFLAGGIAGCCAKTTVAPLDRVKVLLQAHNHHYKHLGVFSALRAVPQKEGFLGLYKGNGAMMIRIFPYGAIQFMAFEHYKTLITTKLGISGHVHRLMAGSMAGMTAVICTYPLDMVRVRLAFQVKGEHSYTGIIHAFKTIYAKEGGFFGFYRGLMPTILGMAPYAGVSFFTFGTLKSVGLSHAPTLLGRPSSDNPNVLVLKTHVNLLCGGVAGAIAQTISYPFDVTRRRMQLGTVLPEFEKCLTMRDTMKYVYGHHGIRKGLYRGLSLNYIRCIPSQAVAFTTYELMKQFFHLN
notes: SLC25A16; protein on the human proteome microarray; source: spotted on the HuProt human proteome microarray
B3: AKR1C3 (natural protein, human, UniProt P42330 1-323, looked up)
chain: MDSKHQCVKLNDGHFMPVLGFGTYAPPEVPRSKALEVTKLAIEAGFRHIDSAHLYNNEEQVGLAIRSKIADGSVKREDIFYTSKLWSTFHRPELVRPALENSLKKAQLDYVDLYLIHSPMSLKPGEELSPTDENGKVIFDIVDLCTTWEAMEKCKDAGLAKSIGVSNFNRRQLEMILNKPGLKYKPVCNQVECHPYFNRSKLLDFCKSKDIVLVAYSALGSQRDKRWVDPNSPVLLEDPVLCALAKKHKRTPALIALRYQLQRGVVVLAKSYNEQRIRQNVQVFEFQLTAEDMKAIDGLDRNLHYFNSDSFASHPNYPYSDEY
notes: AKR1C3; protein on the human proteome microarray; source: spotted on the HuProt human proteome microarray
B4: SPRR4 (natural protein, human, UniProt Q96PI1 1-79, looked up)
chain: MSSQQQQRQQQQCPPQRAQQQQVKQPCQPPPVKCQETCAPKTKDPCAPQVKKQCPPKGTIIPAQQKCPSAQQASKSKQK
notes: SPRR4; protein on the human proteome microarray; source: spotted on the HuProt human proteome microarray
B5: SULT1C2 (natural protein, human, UniProt O00338 1-296, looked up)
chain: MALTSDLGKQIKLKEVEGTLLQPATVDNWSQIQSFEAKPDDLLICTYPKAGTTWIQEIVDMIEQNGDVEKCQRAIIQHRHPFIEWARPPQPSGVEKAKAMPSPRILKTHLSTQLLPPSFWENNCKFLYVARNAKDCMVSYYHFQRMNHMLPDPGTWEEYFETFINGKVVWGSWFDHVKGWWEMKDRHQILFLFYEDIKRDPKHEIRKVMQFMGKKVDETVLDKIVQETSFEKMKENPMTNRSTVSKSILDQSISSFMRKGTVGDWKNHFTVAQNERFDEIYRRKMEGTSINFCMEL
notes: SULT1C2; protein on the human proteome microarray; source: spotted on the HuProt human proteome microarray
B6: RPP25 (natural protein, human, UniProt Q9BUL9 1-199, looked up)
chain: MENFRKVRSEEAPAGCGAEGGGPGSGPFADLAPGAVHMRVKEGSKIRNLMAFATASMAQPATRAIVFSGCGRATTKTVTCAEILKRRLAGLHQVTRLRYRSVREVWQSLPPGPTQGQTPGEPAASLSVLKNVPGLAILLSKDALDPRQPGYQPPNPHPGPSSPPAAPASKRSLGEPAAGEGSAKRSQPEPGVADEDQTA
notes: RPP25; protein on the human proteome microarray; source: spotted on the HuProt human proteome microarray
B7: SULT1B1 (natural protein)
chain: not shown
notes: SULT1B1; protein on the human proteome microarray; source: spotted on the HuProt human proteome microarray
B8: TAF9B (natural protein, human, UniProt Q9HBM6 1-251, looked up)
chain: MESGKMAPPKNAPRDALVMAQILKDMGITEYEPRVINQMLEFAFRYVTTILDDAKIYSSHAKKPNVDADDVRLAIQCRADQSFTSPPPRDFLLDIARQKNQTPLPLIKPYAGPRLPPDRYCLTAPNYRLKSLIKKGPNQGRLVPRLSVGAVSSKPTTPTIATPQTVSVPNKVATPMSVTSQRFTVQIPPSQSTPVKPVPATTAVQNVLINPSMIGPKNILITTNMVSSQNTANEANPLKRKHEDDDDNDIM
notes: TAF9B; protein on the human proteome microarray; source: spotted on the HuProt human proteome microarray
B9: RAB5A (natural protein, human, UniProt P20339 1-215, looked up)
chain: MASRGATRPNGPNTGNKICQFKLVLLGESAVGKSSLVLRFVKGQFHEFQESTIGAAFLTQTVCLDDTTVKFEIWDTAGQERYHSLAPMYYRGAQAAIVVYDITNEESFARAKNWVKELQRQASPNIVIALSGNKADLANKRAVDFQEAQSYADDNSLLFMETSAKTSMNVNEIFMAIAKKLPKNEPQNPGANSARGRGVDLTEPTQPTRNQCCSN
notes: RAB5A; protein on the human proteome microarray; source: spotted on the HuProt human proteome microarray
B10: SDS (natural protein, human, UniProt P20132 1-328, looked up)
chain: MMSGEPLHVKTPIRDSMALSKMAGTSVYLKMDSAQPSGSFKIRGIGHFCKRWAKQGCAHFVCSSAGNAGMAAAYAARQLGVPATIVVPSTTPALTIERLKNEGATVKVVGELLDEAFELAKALAKNNPGWVYIPPFDDPLIWEGHASIVKELKETLWEKPGAIALSVGGGGLLCGVVQGLQEVGWGDVPVIAMETFGAHSFHAATTAGKLVSLPKITSVAKALGVKTVGAQALKLFQEHPIFSEVISDQEAVAAIEKFVDDEKILVEPACGAALAAVYSHVIQKLQLEGNLRTPLPSLVVIVCGGSNISLAQLRALKEQLGMTNRLPK
notes: SDS; protein on the human proteome microarray; source: spotted on the HuProt human proteome microarray
B11: RALY (natural protein, human, UniProt Q9UKM9 1-306, looked up)
chain: MSLKLQASNVTNKNDPKSINSRVFIGNLNTALVKKSDVETIFSKYGRVAGCSVHKGYAFVQYSNERHARAAVLGENGRVLAGQTLDINMAGEPKPDRPKGLKRAASAIYSGYIFDYDYYRDDFYDRLFDYRGRLSPVPVPRAVPVKRPRVTVPLVRRVKTNVPVKLFARSTAVTTSSAKIKLKSSELQAIKTELTQIKSNIDALLSRLEQIAAEQKANPDGKKKGDGGGAGGGGGGGGSGGGGSGGGGGGGSSRPPAPQENTTSEAGLPQGEARTRDDGDEEGLLTHSEEELEHSQDTDADDGALQ
notes: RALY; protein on the human proteome microarray; source: spotted on the HuProt human proteome microarray
B12: RBM3 (natural protein, human, UniProt P98179 1-157, looked up)
chain: MSSEEGKLFVGGLNFNTDEQALEDHFSSFGPISEVVVVKDRETQRSRGFGFITFTNPEHASVAMRAMNGESLDGRQIRVDHAGKSARGTRGGGFGAHGRGRSYSRGGGDQGYGSGRYYDSRPGGYGYGYGRSRDYNGRNQGGYDRYSGGNYRDNYDN
notes: RBM3; protein on the human proteome microarray; source: spotted on the HuProt human proteome microarray
B13: SRXN1 (natural protein)
chain: not shown
notes: SRXN1; protein on the human proteome microarray; source: spotted on the HuProt human proteome microarray
B14: RAB5C (natural protein, human, UniProt P51148 1-216, looked up)
chain: MAGRGGAARPNGPAAGNKICQFKLVLLGESAVGKSSLVLRFVKGQFHEYQESTIGAAFLTQTVCLDDTTVKFEIWDTAGQERYHSLAPMYYRGAQAAIVVYDITNTDTFARAKNWVKELQRQASPNIVIALAGNKADLASKRAVEFQEAQAYADDNSLLFMETSAKTAMNVNEIFMAIAKKLPKNEPQNATGAPGRNRGVDLQENNPASRSQCCSN
notes: RAB5C; protein on the human proteome microarray; source: spotted on the HuProt human proteome microarray
B15: SRA1 (natural protein, human, UniProt Q9HD15 1-224, looked up)
chain: MAELYVKPGNKERGWNDPPQFSYGLQTQAGGPRRSLLTKRVAAPQDGSPRVPASETSPGPPPMGPPPPSSKAPRSPPVGSGPASGVEPTSFPVESEAVMEDVLRPLEQALEDCRGHTRKQVCDDISRRLALLQEQWAGGKLSIPVKKRMALLVQELSSHRWDAADDIHRSLMVDHVTEVSQWMVGVKRLIAEKRSLFSEEAANEEKSAATAEKNHTIPGFQQAS
notes: SRA1; protein on the human proteome microarray; source: spotted on the HuProt human proteome microarray
B16: RAB2B (natural protein, human, UniProt Q8WUD1 1-216, looked up)
chain: MTYAYLFKYIIIGDTGVGKSCLLLQFTDKRFQPVHDLTIGVEFGARMVNIDGKQIKLQIWDTAGQESFRSITRSYYRGAAGALLVYDITRRETFNHLTSWLEDARQHSSSNMVIMLIGNKSDLESRRDVKREEGEAFAREHGLIFMETSAKTACNVEEAFINTAKEIYRKIQQGLFDVHNEANGIKIGPQQSISTSVGPSASQRNSRDIGSNSGCC
notes: RAB2B; protein on the human proteome microarray; source: spotted on the HuProt human proteome microarray

The binders below were run against T1, OTULIN (OTU deubiquitinase with linear linkage specificity, FAM105B), His-tagged, biotin-labelled (human, UniProt Q96BN8 1-352, biotin (label; sites not stated)) (assay: peptide or protein array; HuProt human proteome microarray; 5 ug/5 ml biotin-labelled LUBAC or OTULIN in solution, 1 h at room temperature; Cy5-streptavidin, scanned at 635 nm; BSA as negative control; hits: Z-score >= 3 and I_(Mean_Ratio) >= 1.4). Conditions: both partners purified.
T1 construct: OTULIN (FAM105B), cDNA in pET28a; also called HIS-OTULIN; source: E. coli BL21 (DE3), purified (His-tag Purification Resin), labelled with biotin; not shown: His6, N-terminal, kept

Binding result, binds:
B1
B2
B3
B4
B5
B6
B7
B8
B9
B10
B11
B12
B13
B14
B15
B16
